{"source": "paper PMC13627691", "about": "(2026)", "parents": {"B1": {"name": "ATG2A-mCherry (expressed as 3XFLAG-TEV-ATG2A-mCherry) [not stated (the printed accession is a human entry)] / GST-tagged LC3B [not stated (the printed accession is a human entry)] (parent complex)", "chain 1": "MSRWLWPWSNCVKERVCRYLLHHYLGHFFQEHLSLDQLSLDLYKGSVALRDIHLEIWSVNEVLESMESPLELVEGFVGSIEVAVPWAALLTDHCTVRVSGLQLTLQPRRGPAPGAADSQSWASCMTTSLQLAQECLRDGLPEPSEPPQPLEGLEMFAQTIETVLRRIKVTFLDTVVRVEHSPGDGERGVAVEVRVQRLEYCDEAVRDPSQAPPVDVHQPPAFLHKLLQLAGVRLHYEELPAQEEPPEPPLQIGSCSGYMELMVKLKQNEAFPGPKLEVAGQLGSLHLLLTPRQLQQLQELLSAVSLTDHEGLADKLNKSRPLGAEDLWLIEQDLNQQLQAGAVAEPLSPDPLTNPLLNLDNTDLFFSMAGLTSSVASALSELSLSDVDLASSVRSDMASRRLSAQAHPAGKMAPNPLLDTMRPDSLLKMTLGGVTLTLLQTSAPSSGPPDLATHFFTEFDATKDGPFGSRDFHHLRPRFQRACPCSHVRLTGTAVQLSWELRTGSRGRRTTSMEVHFGQLEVLECLWPRGTSEPEYTEILTFPGTLGSQASARPCAHLRHTQILRRVPKSRPRRSVACHCHSELALDLANFQADVELGALDRLAALLRLATVPAEPPAGLLTEPLPAMEQQTVFRLSAPRATLRLRFPIADLRPEPDPWAGQAVRAEQLRLELSEPQFRSELSSGPGPPVPTHLELTCSDLHGIYEDGGKPPVPCLRVSKALDPKSTGRKYFLPQVVVTVNPQSSSTQWEVAPEKGEELELSVESPCELREPEPSPFSSKRTMYETEEMVIPGDPEEMRTFQSRTLALSRCSLEVILPSVHIFLPSKEVYESIYNRINNDLLMWEPADLLPTPDPAAQPSGFPGPSGFWHDSFKMCKSAFKLANCFDLTPDSDSDDEDAHFFSVGASGGPQAAAPEAPSLHLQSTFSTLVTVLKGRITALCETKDEGGKRLEAVHGELVLDMEHGTLFSVSQYCGQPGLGYFCLEAEKATLYHRAAVDDYPLPSHLDLPSFAPPAQLAPTIYPSEEGVTERGASGRKGQGRGPHMLSTAVRIHLDPHKNVKEFLVTLRLHKATLRHYMALPEQSWHSQLLEFLDVLDDPVLGYLPPTVITILHTHLFSCSVDYRPLYLPVRVLITAETFTLSSNIIMDTSTFLLRFILDDSALYLSDKCEVETLDLRRDYVCVLDVDLLELVIKTWKGSTEGKLSQPLFELRCSNNVVHVHSCADSCALLVNLLQYVMSTGDLHPPPRPPSPTEIAGQKLSESPASLPSCPPVETALINQRDLADALLDTERSLRELAQPSGGHLPQASPISVYLFPGERSGAPPPSPPVGGPAGSLGSCSEEKEDEREEEGDGDTLDSDEFCILDAPGLGIPPRDGEPVVTQLHPGPIVVRDGYFSRPIGSTDLLRAPAHFPVPSTRVVLREVSLVWHLYGGRDFGPHPGHRARTGLSGPRSSPSRCSGPNRPQNSWRTQGGSGRQHHVLMEIQLSKVSFQHEVYPAEPATGPAAPSQELEERPLSRQVFIVQELEVRDRLASSQINKFLYLHTSERMPRRAHSNMLTIKALHVAPTTNLGGPECCLRVSLMPLRLNVDQDALFFLKDFFTSLVAGINPVVPGETSAEARPETRAQPSSPLEGQAEGVETTGSQEAPGGGHSPSPPDQQPIYFREFRFTSEVPIWLDYHGKHVTMDQVGTFAGLLIGLAQLNCSELKLKRLCCRHGLLGVDKVLGYALNEWLQDIRKNQLPGLLGGVGPMHSVVQLFQGFRDLLWLPIEQYRKDGRLMRGLQRGAASFGSSTASAALELSNRLVQAIQATAETVYDILSPAAPVSRSLQDKRSARRLRRGQQPADLREGVAKAYDTVREGILDTAQTICDVASRGHEQKGLTGAVGGVIRQLPPTVVKPLILATEATSSLLGGMRNQIVPDAHKDHALKWRSDSAQD", "chain 2": "not shown"}}}
{"variants_of": "B1", "test": "bead-based binding assay (GSH beads, confocal imaging of mCherry fluorescence); 5 µM GST-tagged bait on Glutathione Sepharose 4B beads; 0.5 µM ATG2A-mCherry or ATG2A-LIR-mCherry; SEC150 buffer; N = 3; parent: 17; read off a plot", "units": {"response": "%"}}
{"variant": "chain 1 F1362A, chain 1 C1363A, chain 1 I1364A, chain 1 L1365A", "response": "~0.7"}
